Assay results taken from patent publication EP0971740B1.

How the values were obtained:
[1] = molecular target: FnBP purified from S. aureus strain Newman (Staphylococcus aureus); test: competition ELISA on FnBP coated at 5 µg/ml; competitor anti-D121-34 F(ab')2 at 100 µg/ml
[2] = molecular target: FnBP purified from S. aureus strain Newman (Staphylococcus aureus); test: competition ELISA on FnBP coated at 5 µg/ml; competitor anti-D320-33 F(ab')2 at 100 µg/ml

Substance: Human plasma Fn (from UniProt P02751 32-2477) (ligand)
- concentration of soluble Fn at which F(ab')2 recognition of FnBP was virtually eliminated [1]: 50 µg/mL
- concentration of soluble Fn at which F(ab')2 recognition of FnBP was virtually eliminated [2]: 50 µg/mL
